Assay results from the DeepSol protein solubility set.

test: soluble on expression in E. coli; label from the status in PepcDB or PDB records

Sequence | soluble on expression in E. coli
MKLERVLPFARSLLQTAVKEGDYAVDATLGNGHDTCFLAEIVGDNGKVFGFDIQKEAIESSTTRLKEKELFERTVLVHDSHDTLLSILPEDAKGKVTGAIFNLGYLPGGDKHIVTKPNSTISAIEQLLEVMAPEGIIVLVIYHGHPEGQVERDAVLKFAEELDQKQAHVLRYGFINQQNNPPFIVAIEKR | not soluble
MKLERVTVKNFRSHSDTVVEFKEGINLIIGQNGSGKSSLLDAILVGLYWPLRIKDIKKDEFTKVGARDTYIDLIFEKDGTKYRITRRFLKGYSSGEIHAMKRLVGNEWKHVTEPSSKAISAFMEKLIPYNIFLNAIYIRQGQIDAILESDEAREKVVREVLNLDKFETAYKKLSELKKTINNRIKEYRDILARTE | soluble
MKLFLAEPFKSLWAGRDAFAEVEGLSGEVYRELEGRRTLRTEVDGRGYFVKIHRGIGWGEIAKNLATAKLPVLGAGKEWDAIERLHEVGVPTMTAVAYGERGSNPAAQHSFIVTEELAPTTSLEDVSLNWRTEPPEPRLKRAFIAEVARLVGMMHRAGVNHRDCYICHFLLHTDKPVTADDFRLSVIDLHRAQTRRAITPRWRNKDLAALYFSALDIGLTRRDKLRFLKDYFQLPLREILLKEAALLTWLDKKADKLYQRKVRYGDAL | not soluble
MKLGNVVIVLGKRLVNNQLSAEGISRVEALAAKIREMPMENTALVFCGGKTQGQSISEADAMYAYFQTLNTSLAKPFPTSQTLLENRSLNTFENMRNAAKVLCESGLFPLPSQATVEVILLSNVYHLERILEIQTLMDEQGLLRVIKSQCASVGLDLHISLDIQKHISVPYPHQGPQAEAFLLLDELTTYRVYLEGVKSGAFQRDLTSVRAQPLLRAKQAISQLRALPLEMDVLQQIAEMKKAIEMTAFDESVATAERALEMFHPILTALNRRLDPESIQAAALEHHHHHH | soluble
MKLIRGIHNLSQAPHGCVLTIGNFDGVHRGHRALLQGLQEEGRRRGLPVVVMIFEPQPLELFATDKAPARLTRLREKLHYLAQCGVDYVLCVKFDRRFAALTAQTFISELLVERLGVQFLAVGDDFRFGASRAGDFLLLQKAGAEYGFAVSSTQTFCEGGVRISSTAVRQALAEDNLALAESLLGHPFTISGRVVHGDELGRTIGFPTANLPLRRQVSPVKGVYAVEVTGLGDKPLPGVANIGTRPTVAGVRQQLEVHLLDVVMDLYGRHIDVILRKKIRNEQRFASLDELKAQIARDELTARKFFGLAGQV | not soluble
MKLLDHKLSLLEITDEEKSDEIILNLSRNVKKDLEDIVVANVSMENVLVMNIKVPPTLNKQNAVEYATMEISRNLGILPEQLVVAPLDIRGGEGLFFVSKVDQVKSFVTDLMKKEFPETDVVIPDIVKYLEVFEFYFGKRLKGTS | soluble
MKLNIRAQTAQNQHNNSPIVLVHGLFGSLDNLGVLARDLVNDHNIIQVDVRNHGLSPREPVMNYPAMAQDLVDTLDALQIDKATFIGHSMGGKAVMALTALAPDRIDKLVAIDIAPVDYHVRRHDEIFAAINAVSESDAQTRQQAAAIMRQHLNEEGVIQFLLKSFVDGEWRFNVPVLWDQYPHIVGWEKIPAWDHPALFIPGGNSPYVSEQYRDDLLAQFPQARAHVIAGAGHWVHAEKPDAVLRAIRRYLNDH | soluble
MKLQKQLLEAVEHKQLRPLDVQFALTVAGDEHPAVTLAAALLSHDAGEGHVCLPLSRLENNEASHPLLATCVSEIGELQNWEECLLASQAVSRGDEPTPMILCGDRLYLNRMWCNERTVARFFNEVNHAIEVDEALLAQTLDKLFPVSDEINWQKVAAAVALTRRISVISGGPGTGKTTTVAKLLAALIQMADGERCRIRLAAPTGKAAARLTESLGKALRQLPLTDEQKKRIPEDASTLHRLLGAQPGSQRLRHHAGNPLHLDVLVVDEASMIDLPMMSRLIDALPDHARVIFLGDRDQLASVEAGAVLGDICAYANAGFTAERARQLSRLTGTHVPAGTGTEAASLRDSLCLLQKSYRFGSDSGIGQLAAAINRGDKTAVKTVFQQDFTDIEKRLLQSGEDYIAMLEEALAGYGRYLDLLQARAEPDLIIQAFNEYQLLCALREGPFGVAGLNERIEQFMQQKRKIHRHPHSRWYEGRPVMIARNDSALGLFNGDIGIALDRGQGTRVWFAMPDGNIKSVQPSRLPEHETTWAMTVHKSQGSEFDHAALILPSQRTPVVTRELVYTAVTRARRRLSLYADERILSAAIATRTERRSGLAALFSSRE | soluble
MKLRASVLIGATILCLILSACSNYAKKVVKQKNHVYTPVYNELIEKYSEIPLNDKLKDTPFMVQVKLPNYKDYLLDNKQVVLTFKLVHHSKKITLIGDANKILQYKNYFQANGARSDIDFYLQPTLNQKGVVMIASNYNDNPNSKEKPQTFDVLQGSQPMLGANTKNLHGYDVSGANNKQVINEVAREKAQLEKINQYYKTLLQDKEQEYTTRKNNQREILETLSNRAGYQMRQNVISSEIFKNGNLNMQAKEEEVREKLQEERENEYLRNQIRSLLSGK | not soluble
MKLSCVIVSHNMKNYIGRCIDSVRTALADIRSLVGEAEIIVVDRGSTDGTANAARTAYADVTIVDVPFDAGWATAANKGACAATGETLLFVSPEVELLSGGLPRLLEHLETNPACAIAGGAVVSTSGALLHGPARFPGLLGKLAALTGLGSRFPRTMLDWTRYGGRNLDLPLEVDSVSFDYAVVKAAAFCKLGRFDARFHTAFADTDLCRRASRTMLPRPTVAFVPQARARAQDNFVLRDEVQAFDLHGTAVVRGRVRCEMLYVWKNYCILTSLANTTLELVGQACRYAMGLLPVIGCDKTARHSAAVLKETAQAALDTQLGSQYPTTPWLEHHHHHH | not soluble
MKLSQLGFFCAVVERGTIAAAAEQLHCVPSNITTRLRELEGQLGVALFNRERNRLLVTPEGRLLYRHATRLLALADETAALFAGDQAHGALRVGALDVALANHLPQRLARYRRESPGVELHIRPEHSLLLERLLMEGELDLIVTDGPIEHPLLASRLAFRERLLRVTPADLPAPTPEDLAGLELYVFGHTCHYRRQVDRWLAESAIQPRATLEIESYPSLFACIEAGLGFACVPESFVARRPSTRRGFHAEPVAGLDSSDIHFVWRKQQASPLIQGFIDSIGAD | not soluble
MKLTLAIPSLNLDEDEIRIPLCLHAFNKILQYGSLHRQSCTASAFYARYLWCGRLVERAAQSLNMPSEAVALATPVWQKMGMHQANVLTAEYLNVGTDEAERICRDLSAFYGDIPWRFVPVLPELWLVSLPCAYRWGAKPVLDLGGLLGADDQPDGEDALEWLRVQTEIQMWLAAHPVNHNRKKRGLPELNGLWLWDGTNGGAQGGTLFADTVWSRFHSDRRALPDNFRAYEETAAHLPDTHHILFMDDLRLTALTGDRERYAAILQQWEERWFAPIYEAVRTGKIKRLDITTDGQHGGTLTFKPADRWKFWRGAKTFDGIW | not soluble
MKLVLFDCDGTLVDSAGLIHAVMSETFADFGKPRPDISETKAIIGLTLDIAIARMLGRAHVDDEAAAMALRYKENYHPLRERFENATPLFDGIASLIDMLSKRDDVLIGAVTGKGRRGLTQILETHGFADHFIVSRTADDCPSKPHPAMVMECCHETGMVPADTIVIGDAIYDMQMAKAAGAKAIGVAWGYASVEDLWKAGADAVVNHPNDIPAYVPADITE | not soluble
MKLVNVTNSYKQLVNKQLENTDAYFVKVYSAGNTTAVYSEAAHHVEVLIMNKNRRIRPTEVKEILAKLLKRLPKEAYDPDEISIIELNHVTEVSVPLKVSLMEN | not soluble
MKLWAIYFEPEDWVGFRETRRFSFSDRVESVFPSSFPFYGAVRTALLMKNQKFDPGDVERAGDVRMFGPFVFENTPEGRKHYFPLPRNIYKTDSGYRVTPIVEIDGVYLPWKPEYKMDSKESTSGGLIELSDLELLRSNTQGVCKFDLVSAEKIFKKETHIGVAFEENRKKVKERMIYSISYYRFYDGGFFMFTDDERTVELVSKLDGVFLGMKSKWSAVEVEELNTTAFDPPDYKNVAVALITPAVFDGGGMPKDKTILGKRVLTTAGIRKQVVSGWDLRENKPKKIYHAVSPGAVYYLEGKVNGHVLNESKFTDFGFGRCIFMKYEKL | soluble
MKMKHMKPYTTMKTVLSTLAIALAFGPLHNAQACTRILYETGNQSYISGRSMDWADPSAATALWVFPKGMKRDGTVGDNPIKWSAKYGSIIVSFYDAGTADGMNEKGLVANMLYLKEAKWGDATKAGKPTLTAGAWAQYFLDNYATVEEAVTAMANPPFTIIAPSLPNGDAAALHLSISDVNGDSAIFEYIDGKLVIHHGSQYKVMTNSPTFDQQLALNTYWQQIGGSKFLPGTINAADRFVRASYALSASPKYRDNDLALASVFSQIRAVSVPLGITDPDRPNLAMTLWRTFADHTAKIYYFESAVFPAVSWLDMSKVDLTEGAAPKVVRVERGQPLAGELSAALKPAEPFKWLGAE | not soluble
MKNIATGGVLERIRRLAPPHVTAPFRTVAEWREWQLAEGQKRCEEINRQNRQLRVEKILNRSGIQPLHRKCSFANYQVQNDGQRYALSQAKSIADELVTGCTNFAFSGKPGTGKNHLAAAIGNRLLKDGQTVIVVTVADVMSALHASYDDGQSGEKFLRELCEVDLLVLDEIGIQRETKNEQVVLHQIVDRRTASMRSVGMLTNLNYEAMKTLLGERIMDRMTMNGGRWVNFNWESWRPNVGQPGIEK | soluble
MKNKKTLTKVALTTGLALTAVAPYGVGHAEETDQLQVQIQEESFRSGELTQPSQKAPENVVKDALKEKTEQALSPKQVNGETGVDYKVLQKRGSYDGTTLVRIQQTYEGKEVYGHQLTAHVDNSGVIKSVSGDSAQNLKQEELKKPINLSKDEATQYIYTKYGNDINFISEPEVKEVIFVDENNGQASNAYQVTFEAATPNYISGTYLINAQNGDMLKNMVQESNLKASEKLVGALKKSKKSSLTSLTGTGKDDLGISRSFGISKQSNGKYALADYTRGQGIETYDVNYRDITKEESYYPGTLATSTSTTFNDPKAVSAHYLATKVFDFYKDKYNRNSFDNQGQKVVSVVHAWDSGDTNDPKNWQNALSANNGSMLVYGDPIVKAYDVAGHEFTHAVTSSESNLEYYGESGAINEALSDIMGTSIEKYVNNGSFNWTMGEQTGSVFRDMENPTSVPSSLGVPYPDDYSEFNDFNGWDQGGVHFNSSIINKVAYLIAKGGTHNGVTVKGIGEDKMFDIFYYANTDELNMTSNFKELRSACIRVATNKYGANSAEVQAVQKAFDAAKIK | not soluble
MKNLENYFDKAELQHFFECLTDDDNTPQASVFFRLAAFTGMRKSEMLCLEWSDIDFSNHTIRVNKTQSRGDGARLLVQAPKTARSNRTVYLDPTTIKILQHWQVDQKKWLLRFGFNINQGNHYVFANENNEMFQPSKPRKWLEHTLTKYDLKHVTVHAFRHTYATLAFEAHASIKSVQDQLGHSSYRTTLDIYTAVTAKQKNEATEKLANYLNFLEHHHHHH | not soluble
MKNLSLFTDFYEISMMNAYFTKGINPKAKFEVFFRKTPFKNGYIVLAGMHTLINELKNIRFGENELKYLKSFNILDKQFLNFLREFKLNVKISSIEEGRIVFPQAPVVVIEGHLIELLLIEGLVLNIINFESLIATKTARIKESGAKILAELGLRRAQGINGALSASKAAYIGGADFTSNMLAGYKYNIPVTGTMAHSWIMSFETEEQAFREYAKTYPNKVSLLIDTYDTLNSGLKNAIKIFKELKHEEKNNFSIRIDSGDLEYLSKAARKELNRNGLNHVKIIASNELDENIIMYLNSINAPIDIWGVGTNLVTAKGDPSLSGVYKMISIEKNGKFIPKIKISNNAEKSTLPDQKEVARIYLNDQMILDFIFLKEEKDKIKDHLNSRKEFTVFHPIQDNIFKIIKQYDDFEFLTHTVLENGKLRKGYESSLTNIRNKTKLDLSKLEHTYKRIINPHIYKVSISKNLRKLKNKLTKDIKNN | not soluble
